Experimental data as given in patent publication US20200270339A1 (CEPHALON, published 2020).
“And” between values parts separate entries of the source, which are not always exact repeats. Identical values can stand only once. Blank lines part the entries; values can stand above or below the binder they belong to.

Tests used:
[1] = target: T1, human IL-15 complexed with the IL-15 Receptor-alpha (human, UniProt P40933 49-162); test: SPR, antibody captured on Protein A chip, IL-15 complex as analyte
T1 construct: Co-expressed in HEK293F from plasmids in a 1:1 ratio; also called IL-15/IL-15Rα complex
Protocol: Binding of Antibody 70 variants to human IL-15 complexed with the IL-15 Receptor-alpha were assessed using surface plasmon resonance on a BIACORE® T200 (GE Healthcare) system using a Protein A Sensor Chip (GE Healthcare). Antibodies were captured onto the second flow cell to a level of 150-200 RU. Purified cytokines were diluted to 10 μg/mL in HBS-EP+. Binding was measured by injection of […] of each cytokine at a flow rate of […] across both flow cells and allowing 180 s of dissociation time. The chip surface was regenerated between cycles with two 10 sec pulses of 50 mM sodium hydroxide. The running buffer used was HBS-EP+ (GE Healthcare) and all interactions were measured at 25° C. and data collection rate set to 10 Hz.
A summary of the surface plasmon resonance data is shown on FIG. 36. The affinity can be measured by the KD (the equilibrium dissociation constant between the antibody and its antigen). […] The large difference in KD between variants of Antibody 70 and AMG714 is driven by the dissociation rate (kd). IL-15 dissociates from AMG714 ten times faster than the rate of dissociation of IL-15 from Antibody 70 variants. […] This was tested in a cell based potency assay.
Target sequence in this assay (P40933 49-162 limits assumed, one chain of several): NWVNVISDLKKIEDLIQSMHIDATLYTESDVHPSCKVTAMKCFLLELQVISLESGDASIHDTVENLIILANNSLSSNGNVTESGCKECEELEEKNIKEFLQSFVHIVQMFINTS

[2] = target: T1, human IL-15 complexed with the IL-15 …; test: cell-based or functional assay
[3] = target: T1, human IL-15 complexed with the IL-15 …; test: SPR, run 2
Target sequence in this assay (P40933 49-162 limits assumed, one chain of several): as above

[4] = target: T1, human IL-15 complexed with the IL-15 …; test: SPR, run 5
Target sequence in this assay (P40933 49-162 limits assumed, one chain of several): as above

[5] = target: T1, human IL-15 complexed with the IL-15 …; test: SPR, run 4
Target sequence in this assay (P40933 49-162 limits assumed, one chain of several): as above

[6] = target: T1, human IL-15 complexed with the IL-15 …; test: SPR, run 6
Target sequence in this assay (P40933 49-162 limits assumed, one chain of several): as above

[7] = target: T1, human IL-15 complexed with the IL-15 …; test: cell-based or functional assay; remark: listed apart in the source
Target sequence in this assay (P40933 49-162 limits assumed, one chain of several): as above

[8] = target: T2, uncomplexed IL-15 Receptor α (human); test: ELISA and cELISA, hybridoma supernatant
T2 construct: also called IL-15Rα; IL15Rα
T2 chain: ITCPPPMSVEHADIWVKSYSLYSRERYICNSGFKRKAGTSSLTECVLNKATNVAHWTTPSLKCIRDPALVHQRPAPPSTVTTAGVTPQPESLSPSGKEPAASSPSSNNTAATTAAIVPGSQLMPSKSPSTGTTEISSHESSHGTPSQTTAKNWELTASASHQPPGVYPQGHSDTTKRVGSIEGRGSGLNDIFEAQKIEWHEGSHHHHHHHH
Protocol: Microtiter plates were coated with purified IL-15 or purified IL-15Rα or purified IL-15 complex. Briefly, microtiter plates were coated with purified protein in PBS and then blocked with irrelevant proteins such as bovine serum albumin (BSA) diluted in PBS. Dilutions of hybridoma supernatants were added to each well and incubated for 1-2 hours at 37° C. The plates were washed with PBS/TWEEN® 20, and then incubated with a goat-anti-human IgG Fc-specific polyclonal reagent conjugated to a suitable detection reagent […] for 1 hour at 37° C. […] Hybridomas that produced antibodies showing positive reactivity with the IL-15 complex but not with IL-15Rα were selected for further characterization.
cELISA was carried out as follows. HEK cells were transfected with DNA encoding IL-15 and IL-15Rα such that they expressed the IL-15 complex. The transfected HEK cells were coated onto an ELISA plate and dilutions of hybridoma supernatants was applied to the plate so that it could bind to the IL-15 complex expressed on the surface of the cells. The assay was repeated using HEK cells transfected with IL-15Rα such that they expressed uncomplexed IL-15Rα. The advantage of using cELISA in addition to classical ELISA is that a native protein complex is used to screen the antibodies.

[9] = target: T1, human IL-15 complexed with the IL-15 …; test: SPR
[10] = target: T3, IL-15 Q101A co-expressed with IL-15Rα (human, UniProt P40933 49-162); test: SPR
T3 construct: Purified alanine scan construct, expressed in EXPI293F cells with human IL-15Rα
Protocol: (§1) All interactions were measured at 25° C. and the data collection rate was set to 10 Hz. Data from FC2-1 was used for analysis. The resultant sensorgrams were analysed by creating two custom report points, each calculated for a 5 s window starting either 10 s after injection of the sample (‘early binding’) or 10 s before the end of dissociation (‘late binding’). These values were subtracted from the values for the untransfected control and a relative dissociation rate was estimated by first, taking a ratio of these two custom report points (‘late binding’/‘early binding’) and then, taking the resultant values as a fraction of the value calculated for wild-type human IL-15 complexed with the IL-15 Receptor-alpha (data not shown).
(§2) A Protein A Sensor Chip (GE Healthcare) was used to capture Antibody 70a onto the second flow cell to a capture level of 150-200 RU. Purified IL-15 alanine scan constructs were diluted to 10 μg/mL in HBS-EP+ and then a 2-fold dilution series was made. Binding was measured by injection of 45 μL of each dilution at a flow rate of 30 μL/min across both flow cells and allowing 600 s of dissociation time. The chip surface was regenerated between cycles with a 10 sec pulse of 50 mM sodium hydroxide. The running buffer used was HBS-EP+ (GE Healthcare) All interactions were measured at 25° C. and the data collection rate was set to 10 Hz. Data from Fc2-1 was used for analysis and generated sensorgrams were fitted using a 1:1 Langmuir equation (using local Rmax fitting) to determine KD. […] Antibody 70a had low binding to mutated IL-15 with a Q108A substitution.

[11] = target: T4, IL-15 H105A co-expressed with IL-15Rα (human, UniProt P40933 49-162); test: SPR
T4 construct: Purified alanine scan construct, expressed in EXPI293F cells with human IL-15Rα
Protocol: as §1, §2

[12] = target: T5, IL-15 E98A co-expressed with IL-15Rα (human, UniProt P40933 49-162); test: SPR
T5 construct: Purified alanine scan construct, expressed in EXPI293F cells with human IL-15Rα
Protocol: as §1, §2

[13] = target: T6, IL-4 (UniProt P05112 25-153); test: SPR, antibody captured on Protein A chip
T6 sequence (looked up): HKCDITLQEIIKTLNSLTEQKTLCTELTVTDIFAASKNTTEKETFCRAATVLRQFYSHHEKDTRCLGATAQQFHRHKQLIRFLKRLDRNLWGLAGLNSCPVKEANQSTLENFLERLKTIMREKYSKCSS

[14] = target: IL-2 (UniProt P60568 21-153); test: SPR, antibody captured on Protein A chip
[15] = target: IL-9 (UniProt P15248 19-144); test: SPR, antibody captured on Protein A chip
[16] = target: T2, uncomplexed IL-15 Receptor α; test: SPR, antibody captured on Protein A chip
[17] = target: IL-21 (UniProt Q9HBE4 30-162, limits assumed); test: SPR, antibody captured on Protein A chip
[18] = target: T7, IL-7 (UniProt P13232 26-177); test: SPR, antibody captured on Protein A chip
T7 sequence (looked up): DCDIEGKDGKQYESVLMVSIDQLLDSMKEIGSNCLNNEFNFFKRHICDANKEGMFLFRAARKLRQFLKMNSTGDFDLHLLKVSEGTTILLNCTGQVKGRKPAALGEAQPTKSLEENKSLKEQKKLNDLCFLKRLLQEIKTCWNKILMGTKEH

[19] = target: T1, human IL-15 complexed with the IL-15 …; test: cell-based or functional assay; remark: listed apart in the source
[20] = target: T1, human IL-15 complexed with the IL-15 …; test: subsequent studies, method not restated; subsequent studies; average; analyte form and method not restated

Chain of IL-2 (P60568 21-153 limits assumed): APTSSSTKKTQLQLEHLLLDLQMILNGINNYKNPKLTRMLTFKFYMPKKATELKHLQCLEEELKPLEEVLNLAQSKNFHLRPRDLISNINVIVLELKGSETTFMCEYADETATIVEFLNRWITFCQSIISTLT
Chain of IL-21 (Q9HBE4 30-162 limits assumed): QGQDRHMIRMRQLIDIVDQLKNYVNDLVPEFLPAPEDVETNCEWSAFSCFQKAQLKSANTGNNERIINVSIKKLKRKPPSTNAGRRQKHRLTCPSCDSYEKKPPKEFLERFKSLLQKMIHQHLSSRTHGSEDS
Chain of IL-9 (P15248 19-144 limits assumed): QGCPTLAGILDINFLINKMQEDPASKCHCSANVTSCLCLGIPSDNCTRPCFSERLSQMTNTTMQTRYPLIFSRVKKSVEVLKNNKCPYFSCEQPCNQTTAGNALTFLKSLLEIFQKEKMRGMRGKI
T4 sequence (P40933 49-162 H153A limits assumed): as the sequence (P40933 49-162 limits assumed, one chain of several) above, with H105A counted along it
T3 sequence (P40933 49-162 Q149A limits assumed): as the sequence (P40933 49-162 limits assumed, one chain of several) above, with Q101A counted along it
T5 sequence (P40933 49-162 E146A limits assumed): as the sequence (P40933 49-162 limits assumed, one chain of several) above, with E98A counted along it

Kd [1]: 0.629 nM
IC 50 (NK-92) in pM [2]: 148 pM
Kd [3]: 0.982 nM
koff [3]: 0.000138 s⁻¹
kon [3]: 141000 M⁻¹ s⁻¹
Kd [4]: 0.979 nM
koff [4]: 0.000166 s⁻¹
kon [4]: 170000 M⁻¹ s⁻¹
Kd [5]: 1.28 nM
koff [5]: 0.000182 s⁻¹
kon [5]: 142000 M⁻¹ s⁻¹
Kd [6]: 1.07 nM
koff [6]: 0.00016 s⁻¹
kon [6]: 150000 M⁻¹ s⁻¹
IC50, NK-92 proliferation assay [7]: 0.1 nM
binding result [8]: no binding
Kd [9]: 0.63 nM and 0.628 nM
koff [9]: 9.43e-05 s⁻¹ and 9.31e-05 s⁻¹
kon [9]: 148000 M⁻¹ s⁻¹ and 150000 M⁻¹ s⁻¹
B1: Antibody 4 (antibody, V domains shown, not shown: a dimerising Fc or GST)
VH: QVQLQESGPGLVKPSGTLSLTCAVSGGSISSSNWWSWVRQPPGKGLEWIGEIYHSGNTNYNPSLKSRVTISVDKSKNQFSLKLISVTAADTAVYYCAREGIGWPSFDYWGQGTLVTVSS
VL: SSELTQDPAASVALGQTVRITCQGDTLRNYYASWYQQKPGQAPILVIYGKNNRPSGIPDRFSGSSSGNTASLTITGAQAEDEADYYCNSRDSSGKNLVFGGGTKLTVLG
notes: from section 3.4 on as recombinant human IgG1 lambda; also called parent antibody; parental antibody

binding result [10]: binds
binding result [11]: binds
binding result [12]: binds
binding result [13]: no binding (tested: 10 µg/mL)
binding result [14]: no binding (tested: 10 µg/mL)
binding result [15]: no binding (tested: 10 µg/mL)
binding result [16]: no binding (tested: 10 µg/mL)
binding result [17]: no binding (tested: 10 µg/mL)
binding result [18]: no binding (tested: 10 µg/mL)
IC 50 (NK-92) in pM [2]: 18.2 pM
Max IC50 (pM), NK-92 proliferation assay [19]: 22 pM
Mean IC50 (pM), NK-92 proliferation assay [19]: 14.7 pM
Min IC50 (pM), NK-92 proliferation assay [19]: 10.2 pM
Kd [9]: 0.133 nM and 0.149 nM
koff [9]: 3.47e-05 s⁻¹ and 3.75e-05 s⁻¹
kon [9]: 252000 M⁻¹ s⁻¹ and 261000 M⁻¹ s⁻¹
B2: Antibody 70a (antibody, human IgG1, lambda)
heavy: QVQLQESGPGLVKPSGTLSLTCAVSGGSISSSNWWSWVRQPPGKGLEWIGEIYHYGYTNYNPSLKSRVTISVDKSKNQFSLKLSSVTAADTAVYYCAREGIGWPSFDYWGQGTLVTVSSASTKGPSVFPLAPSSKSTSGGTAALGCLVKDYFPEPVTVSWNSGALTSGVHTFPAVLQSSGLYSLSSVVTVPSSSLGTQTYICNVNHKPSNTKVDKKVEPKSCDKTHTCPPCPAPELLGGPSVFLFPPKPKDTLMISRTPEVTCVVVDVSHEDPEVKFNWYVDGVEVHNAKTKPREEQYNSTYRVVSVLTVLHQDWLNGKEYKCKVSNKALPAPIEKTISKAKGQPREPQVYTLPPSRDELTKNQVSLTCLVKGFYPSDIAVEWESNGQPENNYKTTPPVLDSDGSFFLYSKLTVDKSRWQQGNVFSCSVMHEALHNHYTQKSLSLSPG
light: SSELTQDPAASVALGQTVRITCQGDTLRSYYASWYQQKPGQAPILVIYGKNNRPSGIPDRFSGSSSGNTASLTITGAQAEDEADYYCNSRDLSGKNLVFGGGTKLTVLGQPKAAPSVTLFPPSSEELQANKATLVCLISDFYPGAVTVAWKADSSPVKAGVETTTPSKQSNNKYAASSYLSLTPEQWKSHRSYSCQVTHEGSTVEKTVAPTECS
notes: Heavy S54Y + N56Y + I82aS, light N30S + S93L

binding result [13]: no binding (tested: 10 µg/mL)
binding result [14]: no binding (tested: 10 µg/mL)
binding result [15]: no binding (tested: 10 µg/mL)
binding result [16]: no binding (tested: 10 µg/mL)
binding result [17]: no binding (tested: 10 µg/mL)
binding result [18]: no binding (tested: 10 µg/mL)
Max IC50 (pM), NK-92 proliferation assay [19]: 29.8 pM
Mean IC50 (pM), NK-92 proliferation assay [19]: 14.6 pM
Min IC50 (pM), NK-92 proliferation assay [19]: 7.3 pM
Kd [20]: 0.43 nM
Kd [9]: 0.171 nM and 0.173 nM
koff [9]: 4.44e-05 s⁻¹ and 4.32e-05 s⁻¹
kon [9]: 249000 M⁻¹ s⁻¹ and 260000 M⁻¹ s⁻¹
B3: Antibody 70f (antibody, human IgG4 S228P, lambda)
heavy: QVQLQESGPGLVKPSGTLSLTCAVSGGSISSSNWWSWVRQPPGKGLEWIGEIYHYGYTNYNPSLKSRVTISVDKSKNQFSLKLSSVTAADTAVYYCAREGIGWPSFDYWGQGTLVTVSSASTKGPSVFPLAPCSRSTSESTAALGCLVKDYFPEPVTVSWNSGALTSGVHTFPAVLQSSGLYSLSSVVTVPSSSLGTKTYTCNVDHKPSNTKVDKRVESKYGPPCPPCPAPEFLGGPSVFLFPPKPKDTLYITREPEVTCVVVDVSQEDPEVQFNWYVDGVEVHNAKTKPREEQFNSTYRVVSVLTVLHQDWLNGKEYKCKVSNKGLPSSIEKTISKAKGQPREPQVYTLPPSQEEMTKNQVSLTCLVKGFYPSDIAVEWESNGQPENNYKTTPPVLDSDGSFFLYSRLTVDKSRWQEGNVFSCSVMHEALHNHYTQKSLSLSLG
light: B2 light
